Consider one substance from patent US20100061992A1.

The assay has as its target mouse TIM-3 on cells (splenic dendritic cells, D2SC1 dendritic cell line, TIM-3+ Th1 T cells) (mouse) (UniProt Q8VIM0). Description: cell-based or functional assay.
Chain of UniProt Q8VIM0 (Q8VIM0 other isoform, or with tags, fused parts or gaps limits assumed): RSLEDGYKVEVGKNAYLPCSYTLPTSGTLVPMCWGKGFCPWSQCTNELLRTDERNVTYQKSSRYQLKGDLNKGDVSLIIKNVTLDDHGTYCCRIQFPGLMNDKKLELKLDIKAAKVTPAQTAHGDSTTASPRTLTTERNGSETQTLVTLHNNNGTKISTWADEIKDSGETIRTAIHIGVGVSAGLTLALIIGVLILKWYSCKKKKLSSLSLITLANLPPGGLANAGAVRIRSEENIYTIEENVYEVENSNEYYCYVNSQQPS

As for “recombinant human galectin-9 (from UniProt O00182 1-355) (ligand)”, the production of TNF-α in response to LPS and LPS plus galectin-9, TIM-3-/- DCs relative to wild type DCs is 30 to 40%.
